# In patent US20040265880A1, “Genomic and proteomic approaches for the development of cell culture medium” (Sigma-Aldrich Co., priority 2003, published 2004):
# B1: oncostatin M (protein, UniProt P13725 26-221, looked up)
# Oncostatin-M: AAIGSCSKEYRVLLGQLQKQTDLMQDTSRLLDPYIRIQGLDVPKLREHCRERPGAFPSEETLRGLGRRGFLQTLNATLGCVLHRLADLEQRLPKAQDLERSGLNIEDLEKLQMARPNILGLRNNIYCMAQLLDNSDTAEPTKAGRGASQPPTPTPASDAFQRKLEGCRFLHGYHRFMHSVGRVFSKWGESPNRSRR
# notes: ligand of oncostatin M receptor
# Test system: HEK-293 cells
# Test: Resazurin high throughput proliferation assay, HEK-293
# Assay type: cell-based, human
# Details: versus base medium with 1% FBS; each ligand at three concentrations
# Protocol: Resazurin is a metabolic dye which is converted to a fluorescent product. The greater the amount of the fluorescent product that is generated, the more metabolism, which directly correlates with cell number.
# In this assay, resazurin was added to HEK-293 cells plated in each well of a 24-well assay plate containing a test medium containing one of the 16 ligands corresponding to the positive growth factors/cytokines and incubated at 37° C. After a 30 minute incubation, the plate was analyzed on a standard fluorescence plate reader. A higher RFU value from the plate reader translates to a higher cell density in the wells.
# Briefly, the 16 ligands corresponding to positive growth factor/cytokine receptors were tested in the resazurin assay, each ligand at three different concentrations. […]
# Cells were plated in each well of a 24-well tissue culture treated plate containing 1 ml of a base medium. […] After sufficient incubation time to convert some of the resazurin, the fluorescence was measured on a HTS 7000 Plus BioAssay Reader (Perkin-Elmer, Boston, Mass.). Readings were taken once a day until the culture was confluent (typically about 4 days). A plate with base medium only (no cells) was used as a blank and subtracted from the RFU reading to establish the final RFU values.
molecule,measurement,value
B1,"effect on HEK-293 proliferation (RFU, resazurin)",significant effect
